Test results taken from patent publication US20260275312, “CRISPR NUCLEASE POLYPEPTIDES AND GENE EDITING SYSTEMS COMPRISING SUCH” (ARBOR BIOTECHNOLOGIES, INC., published 2026).

Tests used:
[1] = target: T1, Nuclease S H280R/T72R/I845R (synthetic construct, H280R,T72R,I845R); test: cell_activity; HEK293T; PAM AACC; conditions: tags: N-term SV40 NLS, XTEN linker + C-term nucleoplasmin NLS
T1 chain: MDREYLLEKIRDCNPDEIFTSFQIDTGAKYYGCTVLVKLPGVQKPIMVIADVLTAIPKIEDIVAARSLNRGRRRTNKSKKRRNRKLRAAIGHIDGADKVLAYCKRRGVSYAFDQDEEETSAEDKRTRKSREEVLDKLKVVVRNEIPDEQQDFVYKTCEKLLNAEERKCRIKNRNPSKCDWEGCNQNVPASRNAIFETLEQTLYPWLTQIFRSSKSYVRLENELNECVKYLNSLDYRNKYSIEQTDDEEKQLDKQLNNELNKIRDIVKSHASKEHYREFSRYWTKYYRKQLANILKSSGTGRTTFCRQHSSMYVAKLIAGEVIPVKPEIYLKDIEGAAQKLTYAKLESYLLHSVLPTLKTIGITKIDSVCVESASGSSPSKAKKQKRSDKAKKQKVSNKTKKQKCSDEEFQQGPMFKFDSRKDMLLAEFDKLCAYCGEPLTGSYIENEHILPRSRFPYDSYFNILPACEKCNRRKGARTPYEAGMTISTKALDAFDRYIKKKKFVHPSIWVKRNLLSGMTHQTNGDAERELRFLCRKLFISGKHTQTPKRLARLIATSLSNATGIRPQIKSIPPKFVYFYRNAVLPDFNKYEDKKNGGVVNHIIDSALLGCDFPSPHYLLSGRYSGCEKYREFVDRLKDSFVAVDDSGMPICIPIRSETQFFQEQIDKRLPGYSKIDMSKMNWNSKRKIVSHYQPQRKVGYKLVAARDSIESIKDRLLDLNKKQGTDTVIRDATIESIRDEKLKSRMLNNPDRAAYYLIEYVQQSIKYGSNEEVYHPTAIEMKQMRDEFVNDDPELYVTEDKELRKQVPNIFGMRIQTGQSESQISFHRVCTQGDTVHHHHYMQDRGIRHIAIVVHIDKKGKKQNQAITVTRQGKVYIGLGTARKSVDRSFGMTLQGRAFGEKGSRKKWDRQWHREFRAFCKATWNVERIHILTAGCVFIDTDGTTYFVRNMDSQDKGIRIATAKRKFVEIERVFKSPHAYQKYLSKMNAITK
Description: (§1) HEK293T cells were transfected with plasmids expressing the Nuclease S polypeptides and the gRNAs provided herein following the methods provided in Example 1 above. Gene editing efficiencies were determined by NGS following the methods also provided in Example 1. The NGS results were analyzed also following the methods provided in Example 1 above.
(§2) Each Nuclease S variant was cloned as described in Example 6. HEK293T cells were further transfected with a plasmid encoding a Nuclease S variant and a plasmid encoding an RNA guide of Table 11, followed by NGS analysis, as described in Example 5. For each target, indel ratios, referring to the percentage of NGS reads comprising indels, were calculated for the reference Nuclease S (SEQ ID NO: 49) and for each Nuclease S variant. The indel ratios shown in Table 13 were calculated as the average of two bioreplicates, each of which contained two technical replicates.

[2] = target: T2, Nuclease S W509R/T72R/I845R (synthetic construct, W509R,T72R,I845R); test: cell_activity; HEK293T; PAM AACC; conditions: tags: N-term SV40 NLS, XTEN linker + C-term nucleoplasmin NLS
T2 chain: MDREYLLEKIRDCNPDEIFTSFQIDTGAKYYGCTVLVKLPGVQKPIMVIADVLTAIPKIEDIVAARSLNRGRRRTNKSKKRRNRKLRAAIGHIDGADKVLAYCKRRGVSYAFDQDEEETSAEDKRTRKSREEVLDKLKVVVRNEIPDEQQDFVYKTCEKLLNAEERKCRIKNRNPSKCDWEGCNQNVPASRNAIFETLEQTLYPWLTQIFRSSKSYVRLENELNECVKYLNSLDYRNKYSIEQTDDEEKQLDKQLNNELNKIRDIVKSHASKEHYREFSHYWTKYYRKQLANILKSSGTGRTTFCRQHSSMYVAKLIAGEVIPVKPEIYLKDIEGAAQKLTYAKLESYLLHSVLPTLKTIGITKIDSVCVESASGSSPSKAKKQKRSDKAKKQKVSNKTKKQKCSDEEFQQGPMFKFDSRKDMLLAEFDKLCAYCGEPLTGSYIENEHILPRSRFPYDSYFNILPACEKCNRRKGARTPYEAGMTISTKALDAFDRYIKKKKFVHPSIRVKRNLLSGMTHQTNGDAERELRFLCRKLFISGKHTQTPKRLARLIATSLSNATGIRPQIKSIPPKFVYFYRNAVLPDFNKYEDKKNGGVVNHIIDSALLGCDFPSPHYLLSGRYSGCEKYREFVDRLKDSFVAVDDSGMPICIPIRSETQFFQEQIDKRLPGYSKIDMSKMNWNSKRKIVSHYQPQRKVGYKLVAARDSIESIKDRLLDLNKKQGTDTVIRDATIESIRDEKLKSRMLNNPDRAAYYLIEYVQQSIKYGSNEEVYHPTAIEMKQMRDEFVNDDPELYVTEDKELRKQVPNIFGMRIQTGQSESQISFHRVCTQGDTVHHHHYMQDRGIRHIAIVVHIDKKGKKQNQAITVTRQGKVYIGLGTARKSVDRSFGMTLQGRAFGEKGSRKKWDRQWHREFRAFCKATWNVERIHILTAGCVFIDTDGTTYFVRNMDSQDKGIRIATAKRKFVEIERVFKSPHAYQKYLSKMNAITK
Description: as §1, §2

B1: S AAVS1-T7 RNA guide ; AAVS1-T7 target (S) (ssRNA ; dsDNA)
RNA: GGCUAUAAUCCAUGCUGACCGUUGUAUUCGGAUGGGAGUAAAAGGUUGAGUACACCUGGAAACAAAACGACAUAAAGGUGUUCUCCCAUCUGUGUACAAAGAGCAGAUAUAUGAGUUGAUAAGUAAUAUGUUGCACGUAUGGACUUUGACAGUCUGUACCUCUGCGUGAAAGACAUAUUGCGUUAUUCAUAUAUCUGUGAGUCUGUUCUAAAUUUAAAGGUUUAGGGAA
DNA 1: GGCTATAATCCATGCTGACC
DNA 2: GGTCAGCATGGATTATAGCC
activity [1]: 0.333 indel ratio
activity [2]: 0.305 indel ratio
